Experimental findings from patent publication US12103969B2, “Anti-Siglec antibody, pharmaceutical composition comprising the same, and uses thereof” (Academia Sinica, priority 2018, dated 2024) are described below.

The test system of assay [1] is hHBV. The experiment in a line: Bio-layer interferometry: immobilized Fc-lectin and hHBV. The note with it: hHBV, BLI, same condition as Siglec-3. The class given is binding, hepatitis B virus. An excerpt: HBV was purified from blood samples of chronic hepatitis B (CHB) patients and HBV-transgenic mice, respectively. The protocol for HBV was purified by conventional method. HBV viral load was determinate by RT-PCR according to a standard HBV plasmid. HBsAg level was quantified by the HBsAg ELISA kit.
Sialidase S and sialidase C were used to remove sialoglycan from HBV or sialoglycans, respectively. Sialidase S releases only α(2-3)-linked Neu5Ac, while Sialidase C release both α(2-3) and α(2-6)-linked Neu5Ac. The sialidase-treated substrates were used for HBV-Siglec-3 binding assay and competition assay.
The interaction between human Siglec.Fc fusion protein and HBV was determined by the Bio-layer interferometry. […] The valence between HBV and human Siglec-3 was determined, which correlates the strength of multivalent association with that of monovalent association as shown in the following: • KA, surf=F (S×10^−2)^n−1×(KA, mono)^n, where KA, surf is thereciprocal of KD (HBV and Siglec-3), KA, mono is the reciprocal of KD (Biantennary a2-6 linked sialylglycopeptide and Siglec-3); n is the number of valency number; F is the statistic factor in the system and S is equal to 40(Å), which is estimated according to crystal structure of Siglec-3 published on RCSB protein data bank (Number: 5J0B). […]

Assay [2] relates to hHBV. The experiment in a line: Immunoprecipitation of hHBV by Siglec ECD.Fc fusion proteins. The note with it: Western blot with anti-HBs. The format is binding, hepatitis B virus. The method, then:
HBV ([…]) was incubated with recombinant Siglec-3/-7/-9 ECD.Fc fusion proteins, respectively, for 16 hours at 4° C., followed by incubation with Sepharose-conjugated Protein A beads for immunoprecipitation. The samples were fractionated on 12% SDS-PAGE before blotting to PVDF membrane and incubated in blocking buffer (0.05% Tween 20 in TBS containing 5% BSA) at 4° C. overnight. Blots were incubated with […] polyclonal goat-anti-HBs Ab for 1 hour at room temperature, followed by incubation with Streptavidin-HRP (1:10000 dilution) for another 1 hour at room temperature, and were visualized by ECL.
In general terms: Immunoblotting shows a protein as a band on a membrane.

B1: Siglec-7: recombinant human Siglec-7 extracellular domain (ECD).Fc fusion protein (protein)
chain: QKSNRKDYSLTMQSSVTVQEGMCVHVRCSFSYPVDSQTDSDPVHGYWFRAGNDISWKAPVATNNPAWAVQEETRDRFHLLGDPQTKNCTLSIRDARMSDAGRYFFRMEKGNIKWNYKYDQLSVNVTALTHRPNILIPGTLESGCFQNLTCSVPWACEQGTPPMISWMGTSVSPLHPSTTRSSVLTLIPQPQHHGTSLTCQVTLPGAGVTTNRTIQLNVSYPPQNLTVTVFQGEGTASTALGNSSSLSVLEGQSLRLVCAVDSNPPARLSWTWRSLTLYPSQPSNPLVLELQVHLGDEGEFTCRAQNSLGSQHVSLNLSLQQEYTGKMRPVSGVLLGAVGGAGATALVFLSFCVIFIVVRSCRKKSARPAADVGDIGMKDANTIRGSASQGNLTESWADDNPRHHGLAAHSSGEEREIQYAPLSFHKGEPQDLSGQEATNNEYSEIKIPK
On to B1, for which the “binding to hHBV” value in the assay on hHBV [1] was “did not bind”. For the same molecule, the “pull down of hHBV HBsAg (immunoprecipitation)” value in the assay on hHBV [2] was “cannot pull down”.
